According to paper PMC7380666:

Experiment: purification, SEC and SDS-PAGE
Conditions: glycan lost; control: wild-type mCD98hcED

B1: mCD98hcED (murine CD98hc extracellular domain): N385D/T401A (protein)
parent chain: MSQDTEVDMKDVELNELEPEKQPMNAADGAAAGEKNGLVKIKVAEDETEAGVKFTGLSKEELLKVAGSPGWVRTRWALLLLFWLGWLGMLAGAVVIIVRAPRCRELPVQRWWHKGALYRIGDLQAFVGRDAGGIAGLKSHLEYLSTLKVKGLVLGPIHKNQKDEINETDLKQINPTLGSQEDFKDLLQSAKKKSIHIILDLTPNYQGQNAWFLPAQADIVATKMKEALSSWLQDGVDGFQFRDVGKLMNAPLYLAEWQNITKNLSEDRLLIAGTESSDLQQIVNILESTSDLLLTSSYLSNSTFTGERTESLVTRFLNATGSQWCSWSVSQAGLLADFIPDHLLRLYQLLLFTLPGTPVFSYGDELGLQGALPGQPAKAPLMPWNESSIFHIPRPVSLNMTVKGQNEDPGSLLTQFRRLSDLRGKERSLLHGDFHALSSSPDLFSYIRHWDQNERYLVVLNFRDSGRSARLGASNLPAGISLPASAKLLLSTDSARQSREEDTSLKLENLSLNPYEGLLLQFPFVA
stability_or_folding: no change
